The supplement of paper PMC10567573

B1: KCNAB2 (parent)
chain: YVDVVFANRPDPNTPMEETVRAMT

Variants of: B1
Test: protein stability index of a GFP-peptide fusion (GPS, HEK-293T) (PSI 1-6); higher = more stable
Conditions: c terminus: a fixed tail appended
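Also: lentivirally expressed fusions sorted by FACS into six bins by GFP to DsRed ratio, PSI derived from sequencing read proportions per bin multiplied by bin number.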

With YVDTVFANRPDPNTPMEETVRAMT [V4T] as the variant, how does the protein stability index read?
The protein stability index was 2.12.

With YVDPVFANRPDPNTPMEETVRAMT [V4P] as the variant, how does the protein stability index read?
Its protein stability index is 1.87.

For YVDHVFANRPDPNTPMEETVRAMT [V4H], which protein stability index is on record?
The protein stability index was 1.39.

For YVDDVFANRPDPNTPMEETVRAMT [V4D], which protein stability index is on record?
The protein stability index was 2.26.

Which protein stability index does the source give for YVDFVFANRPDPNTPMEETVRAMT [V4F] here?
Its protein stability index is 2.3.

With YVDSVFANRPDPNTPMEETVRAMT [V4S] as the variant, how does the protein stability index read?
The protein stability index was 1.67.

For YVDWVFANRPDPNTPMEETVRAMT [V4W], which protein stability index is on record?
Its protein stability index is 2.33.

For YVDCVFANRPDPNTPMEETVRAMT [V4C], which protein stability index is on record?
The protein stability index was 1.51.

For YVDYVFANRPDPNTPMEETVRAMT [V4Y], which protein stability index is on record?
The protein stability index was 1.85.

Which protein stability index does the source give for YVDQVFANRPDPNTPMEETVRAMT [V4Q] here?
Its protein stability index is 1.71.

For YVDEVFANRPDPNTPMEETVRAMT [V4E], which protein stability index is on record?
The protein stability index was 2.07.

With YVDGVFANRPDPNTPMEETVRAMT [V4G] as the variant, how does the protein stability index read?
Its protein stability index is 3.05.

Which protein stability index does the source give for YVDRVFANRPDPNTPMEETVRAMT [V4R] here?
The protein stability index was 2.52.

Which protein stability index does the source give for YVDAVFANRPDPNTPMEETVRAMT [V4A] here?
Its protein stability index is 1.98.

For YVDIVFANRPDPNTPMEETVRAMT [V4I], which protein stability index is on record?
The protein stability index was 1.83.

For YWDVVFANRPDPNTPMEETVRAMT [V2W], which protein stability index is on record?
The protein stability index was 2.5.

For YTDVVFANRPDPNTPMEETVRAMT [V2T], which protein stability index is on record?
The protein stability index was 2.91.

With YYDVVFANRPDPNTPMEETVRAMT [V2Y] as the variant, how does the protein stability index read?
The protein stability index was 3.07.

With YVDVVFANTPDPNTPMEETVRAMT [R9T] as the variant, how does the protein stability index read?
The protein stability index was 1.7.

Which protein stability index does the source give for YVDVVFANHPDPNTPMEETVRAMT [R9H] here?
Its protein stability index is 1.66.

For YVDVVFANQPDPNTPMEETVRAMT [R9Q], which protein stability index is on record?
The protein stability index was 1.98.

With YVDVVFANIPDPNTPMEETVRAMT [R9I] as the variant, how does the protein stability index read?
Its protein stability index is 2.07.

For YVDVVFANFPDPNTPMEETVRAMT [R9F], which protein stability index is on record?
Its protein stability index is 2.02.

Which protein stability index does the source give for YVDVVFANEPDPNTPMEETVRAMT [R9E] here?
The protein stability index was 2.15.

With YVDVVFANYPDPNTPMEETVRAMT [R9Y] as the variant, how does the protein stability index read?
Its protein stability index is 1.47.

Which protein stability index does the source give for YVDVVFANVPDPNTPMEETVRAMT [R9V] here?
The protein stability index was 2.96.

With YVDVVFANDPDPNTPMEETVRAMT [R9D] as the variant, how does the protein stability index read?
The protein stability index was 2.71.

Which protein stability index does the source give for YVDVVFANGPDPNTPMEETVRAMT [R9G] here?
Its protein stability index is 2.17.

For YVDVVFANKPDPNTPMEETVRAMT [R9K], which protein stability index is on record?
The protein stability index was 1.69.

With YVDVVFANMPDPNTPMEETVRAMT [R9M] as the variant, how does the protein stability index read?
Its protein stability index is 2.67.

Which protein stability index does the source give for YVDVVFANWPDPNTPMEETVRAMT [R9W] here?
Its protein stability index is 2.72.

Which protein stability index does the source give for YVDVVFANAPDPNTPMEETVRAMT [R9A] here?
Its protein stability index is 1.78.

With YVDVVFANPPDPNTPMEETVRAMT [R9P] as the variant, how does the protein stability index read?
The protein stability index was 2.84.

With YVDVVFANNPDPNTPMEETVRAMT [R9N] as the variant, how does the protein stability index read?
Its protein stability index is 2.22.

With YVDVVFANSPDPNTPMEETVRAMT [R9S] as the variant, how does the protein stability index read?
The protein stability index was 2.76.

With YVDVVFANCPDPNTPMEETVRAMT [R9C] as the variant, how does the protein stability index read?
Its protein stability index is 1.6.

For YVDVVFANLPDPNTPMEETVRAMT [R9L], which protein stability index is on record?
Its protein stability index is 2.27.

Which protein stability index does the source give for YVDVVFRNRPDPNTPMEETVRAMT [A7R] here?
The protein stability index was 1.97.

With YVDVVFPNRPDPNTPMEETVRAMT [A7P] as the variant, how does the protein stability index read?
The protein stability index was 2.14.

For YVDVVFSNRPDPNTPMEETVRAMT [A7S], which protein stability index is on record?
The protein stability index was 2.13.

Which protein stability index does the source give for YVDVVFVNRPDPNTPMEETVRAMT [A7V] here?
Its protein stability index is 3.18.

With YVDVVFMNRPDPNTPMEETVRAMT [A7M] as the variant, how does the protein stability index read?
Its protein stability index is 2.16.

With YVDVVFYNRPDPNTPMEETVRAMT [A7Y] as the variant, how does the protein stability index read?
Its protein stability index is 2.64.

For YVDVVFTNRPDPNTPMEETVRAMT [A7T], which protein stability index is on record?
The protein stability index was 2.12.

With YVDVVFKNRPDPNTPMEETVRAMT [A7K] as the variant, how does the protein stability index read?
Its protein stability index is 1.64.

With YVDVVFQNRPDPNTPMEETVRAMT [A7Q] as the variant, how does the protein stability index read?
Its protein stability index is 2.15.

Which protein stability index does the source give for YVDVVFDNRPDPNTPMEETVRAMT [A7D] here?
The protein stability index was 2.02.

For YVDVVFNNRPDPNTPMEETVRAMT [A7N], which protein stability index is on record?
The protein stability index was 1.97.

For YVDVVFLNRPDPNTPMEETVRAMT [A7L], which protein stability index is on record?
Its protein stability index is 1.98.

With YVDVVFWNRPDPNTPMEETVRAMT [A7W] as the variant, how does the protein stability index read?
The protein stability index was 2.45.

For YVDVVFCNRPDPNTPMEETVRAMT [A7C], which protein stability index is on record?
Its protein stability index is 1.74.

With YVDVVFGNRPDPNTPMEETVRAMT [A7G] as the variant, how does the protein stability index read?
The protein stability index was 2.2.

Which protein stability index does the source give for YVDVVFINRPDPNTPMEETVRAMT [A7I] here?
The protein stability index was 1.88.

With YVDVVFENRPDPNTPMEETVRAMT [A7E] as the variant, how does the protein stability index read?
The protein stability index was 2.19.

With YVDVVFHNRPDPNTPMEETVRAMT [A7H] as the variant, how does the protein stability index read?
The protein stability index was 2.09.

Which protein stability index does the source give for YVDVVFFNRPDPNTPMEETVRAMT [A7F] here?
The protein stability index was 3.08.

Which protein stability index does the source give for YVDVVFANRWDPNTPMEETVRAMT [P10W] here?
The protein stability index was 3.14.

Which protein stability index does the source give for YVDVVFANREDPNTPMEETVRAMT [P10E] here?
The protein stability index was 2.13.

Which protein stability index does the source give for YVDVVFANRMDPNTPMEETVRAMT [P10M] here?
The protein stability index was 2.62.

For YVDVVFANRLDPNTPMEETVRAMT [P10L], which protein stability index is on record?
Its protein stability index is 2.7.

Which protein stability index does the source give for YVDVVFANRHDPNTPMEETVRAMT [P10H] here?
The protein stability index was 2.12.

With YVDVVFANRTDPNTPMEETVRAMT [P10T] as the variant, how does the protein stability index read?
The protein stability index was 2.17.

Which protein stability index does the source give for YVDVVFANRKDPNTPMEETVRAMT [P10K] here?
The protein stability index was 2.27.

Which protein stability index does the source give for YVDVVFANRRDPNTPMEETVRAMT [P10R] here?
The protein stability index was 2.13.

Which protein stability index does the source give for YVDVVFANRVDPNTPMEETVRAMT [P10V] here?
The protein stability index was 1.82.

With YVDVVFANRGDPNTPMEETVRAMT [P10G] as the variant, how does the protein stability index read?
Its protein stability index is 2.65.

For YVDVVFANRSDPNTPMEETVRAMT [P10S], which protein stability index is on record?
Its protein stability index is 1.38.

Which protein stability index does the source give for YVDVVFANRNDPNTPMEETVRAMT [P10N] here?
The protein stability index was 2.06.

Which protein stability index does the source give for YVDVVFANRIDPNTPMEETVRAMT [P10I] here?
The protein stability index was 2.2.

With YVDVVFANRADPNTPMEETVRAMT [P10A] as the variant, how does the protein stability index read?
The protein stability index was 1.84.

Which protein stability index does the source give for YVDVVFANRFDPNTPMEETVRAMT [P10F] here?
The protein stability index was 2.8.

For YVDVVFANRQDPNTPMEETVRAMT [P10Q], which protein stability index is on record?
Its protein stability index is 1.73.

With YVDVVFANRCDPNTPMEETVRAMT [P10C] as the variant, how does the protein stability index read?
Its protein stability index is 2.43.

For YVDVVFANRDDPNTPMEETVRAMT [P10D], which protein stability index is on record?
Its protein stability index is 2.47.

Which protein stability index does the source give for YVDVVFANRYDPNTPMEETVRAMT [P10Y] here?
The protein stability index was 1.69.

With YVDVVFAVRPDPNTPMEETVRAMT [N8V] as the variant, how does the protein stability index read?
Its protein stability index is 1.83.

With YVDVVFAQRPDPNTPMEETVRAMT [N8Q] as the variant, how does the protein stability index read?
The protein stability index was 1.9.

Which protein stability index does the source give for YVDVVFAERPDPNTPMEETVRAMT [N8E] here?
The protein stability index was 2.14.

Which protein stability index does the source give for YVDVVFACRPDPNTPMEETVRAMT [N8C] here?
The protein stability index was 2.94.

Which protein stability index does the source give for YVDVVFADRPDPNTPMEETVRAMT [N8D] here?
Its protein stability index is 1.79.

With YVDVVFAMRPDPNTPMEETVRAMT [N8M] as the variant, how does the protein stability index read?
The protein stability index was 3.09.

Which protein stability index does the source give for YVDVVFAARPDPNTPMEETVRAMT [N8A] here?
The protein stability index was 2.69.

With YVDVVFARRPDPNTPMEETVRAMT [N8R] as the variant, how does the protein stability index read?
The protein stability index was 2.3.

Which protein stability index does the source give for YVDVVFALRPDPNTPMEETVRAMT [N8L] here?
The protein stability index was 2.61.

With YVDVVFAIRPDPNTPMEETVRAMT [N8I] as the variant, how does the protein stability index read?
The protein stability index was 2.35.

With YVDVVFASRPDPNTPMEETVRAMT [N8S] as the variant, how does the protein stability index read?
The protein stability index was 2.33.

Which protein stability index does the source give for YVDVVFATRPDPNTPMEETVRAMT [N8T] here?
Its protein stability index is 2.68.

For YVDVVFAFRPDPNTPMEETVRAMT [N8F], which protein stability index is on record?
Its protein stability index is 2.85.

Which protein stability index does the source give for YVDVVFAHRPDPNTPMEETVRAMT [N8H] here?
The protein stability index was 1.76.

With YVDVVFAWRPDPNTPMEETVRAMT [N8W] as the variant, how does the protein stability index read?
The protein stability index was 2.85.

With YVDVVFAGRPDPNTPMEETVRAMT [N8G] as the variant, how does the protein stability index read?
The protein stability index was 1.83.

Which protein stability index does the source give for YVDVVFAYRPDPNTPMEETVRAMT [N8Y] here?
The protein stability index was 2.88.

For YVDVVFAKRPDPNTPMEETVRAMT [N8K], which protein stability index is on record?
Its protein stability index is 1.7.

With YVDVVFAPRPDPNTPMEETVRAMT [N8P] as the variant, how does the protein stability index read?
Its protein stability index is 1.82.
